Measured values reported in patent US20160272689A1.

Molecular target: Fc-tagged extracellular domain of mouse RPTPσ (wild type) (mouse) (UniProt B0V2N1)
Assay: ELISA: Fc-tagged RPTPσ (2 µg/ml) on protein G plates; biotinylated aggrecan 5 µg/ml preincubated with protamine 0-5 µg/ml; streptavidin-HRP, A450

Chain of biotinylated bovine aggrecan, P13608 17-2364 (ligand; biotinylated (sites not stated); natural chondroitin sulphate side chains of the proteoglycan) (P13608 17-2364 limits assumed): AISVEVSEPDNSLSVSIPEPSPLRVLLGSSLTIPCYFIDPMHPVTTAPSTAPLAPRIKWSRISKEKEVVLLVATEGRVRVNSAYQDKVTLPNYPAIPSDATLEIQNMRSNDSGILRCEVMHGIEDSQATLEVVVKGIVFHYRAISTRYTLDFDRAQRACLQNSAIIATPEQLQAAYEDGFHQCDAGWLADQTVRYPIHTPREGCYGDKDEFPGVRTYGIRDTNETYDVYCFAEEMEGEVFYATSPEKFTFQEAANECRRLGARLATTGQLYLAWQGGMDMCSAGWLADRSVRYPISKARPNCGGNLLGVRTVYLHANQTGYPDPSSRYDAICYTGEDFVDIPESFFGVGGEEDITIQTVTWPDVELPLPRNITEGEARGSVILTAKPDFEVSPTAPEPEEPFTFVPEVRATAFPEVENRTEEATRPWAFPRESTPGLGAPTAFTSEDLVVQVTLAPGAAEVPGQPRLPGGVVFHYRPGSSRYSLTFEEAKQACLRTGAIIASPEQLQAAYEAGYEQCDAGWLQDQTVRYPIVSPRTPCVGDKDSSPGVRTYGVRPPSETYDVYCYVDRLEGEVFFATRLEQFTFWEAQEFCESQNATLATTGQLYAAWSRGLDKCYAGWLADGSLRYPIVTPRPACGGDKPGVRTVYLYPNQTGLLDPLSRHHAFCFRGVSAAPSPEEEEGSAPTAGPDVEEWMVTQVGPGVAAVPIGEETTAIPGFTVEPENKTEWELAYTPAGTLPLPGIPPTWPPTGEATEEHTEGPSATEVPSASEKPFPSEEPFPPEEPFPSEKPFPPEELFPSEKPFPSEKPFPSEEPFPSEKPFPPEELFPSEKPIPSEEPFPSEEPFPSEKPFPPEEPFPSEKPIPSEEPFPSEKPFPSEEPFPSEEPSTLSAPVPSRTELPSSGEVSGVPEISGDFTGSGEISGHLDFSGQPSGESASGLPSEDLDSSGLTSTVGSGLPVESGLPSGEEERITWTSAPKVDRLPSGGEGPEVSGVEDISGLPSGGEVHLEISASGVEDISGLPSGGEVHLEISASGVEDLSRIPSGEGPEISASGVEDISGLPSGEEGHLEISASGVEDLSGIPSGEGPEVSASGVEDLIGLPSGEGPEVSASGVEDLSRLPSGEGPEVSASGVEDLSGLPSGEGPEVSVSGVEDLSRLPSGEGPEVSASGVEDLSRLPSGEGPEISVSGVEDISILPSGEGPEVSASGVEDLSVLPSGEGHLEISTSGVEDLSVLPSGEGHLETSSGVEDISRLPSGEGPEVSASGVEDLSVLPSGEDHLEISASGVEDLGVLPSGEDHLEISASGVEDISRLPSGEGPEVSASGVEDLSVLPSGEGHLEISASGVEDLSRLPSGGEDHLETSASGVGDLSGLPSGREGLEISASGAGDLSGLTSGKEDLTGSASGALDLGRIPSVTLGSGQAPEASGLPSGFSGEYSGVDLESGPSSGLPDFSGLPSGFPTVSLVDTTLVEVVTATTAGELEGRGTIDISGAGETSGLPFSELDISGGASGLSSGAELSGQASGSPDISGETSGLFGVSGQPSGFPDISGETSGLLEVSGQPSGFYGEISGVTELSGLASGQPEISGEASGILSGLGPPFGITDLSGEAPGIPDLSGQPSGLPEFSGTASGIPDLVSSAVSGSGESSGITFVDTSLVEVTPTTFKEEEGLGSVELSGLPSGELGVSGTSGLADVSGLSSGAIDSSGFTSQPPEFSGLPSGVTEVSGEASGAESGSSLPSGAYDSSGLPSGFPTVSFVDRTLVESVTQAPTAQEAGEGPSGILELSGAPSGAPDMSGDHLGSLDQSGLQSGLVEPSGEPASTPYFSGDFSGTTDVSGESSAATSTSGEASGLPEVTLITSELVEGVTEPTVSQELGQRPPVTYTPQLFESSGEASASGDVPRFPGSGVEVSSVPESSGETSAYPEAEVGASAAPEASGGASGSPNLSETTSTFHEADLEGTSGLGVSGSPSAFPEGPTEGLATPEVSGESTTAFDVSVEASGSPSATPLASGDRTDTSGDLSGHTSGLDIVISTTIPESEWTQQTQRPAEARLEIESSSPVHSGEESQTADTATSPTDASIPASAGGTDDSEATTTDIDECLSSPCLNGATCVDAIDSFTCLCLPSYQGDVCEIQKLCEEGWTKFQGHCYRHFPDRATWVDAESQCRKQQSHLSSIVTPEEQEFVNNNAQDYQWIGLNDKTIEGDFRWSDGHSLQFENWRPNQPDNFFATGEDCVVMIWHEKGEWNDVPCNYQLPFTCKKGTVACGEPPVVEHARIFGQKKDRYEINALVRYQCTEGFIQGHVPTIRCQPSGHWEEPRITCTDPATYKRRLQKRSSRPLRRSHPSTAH
Chain of Fc-tagged extracellular domain of mouse RPTPσ (wild type) (mouse) (B0V2N1 30-1257): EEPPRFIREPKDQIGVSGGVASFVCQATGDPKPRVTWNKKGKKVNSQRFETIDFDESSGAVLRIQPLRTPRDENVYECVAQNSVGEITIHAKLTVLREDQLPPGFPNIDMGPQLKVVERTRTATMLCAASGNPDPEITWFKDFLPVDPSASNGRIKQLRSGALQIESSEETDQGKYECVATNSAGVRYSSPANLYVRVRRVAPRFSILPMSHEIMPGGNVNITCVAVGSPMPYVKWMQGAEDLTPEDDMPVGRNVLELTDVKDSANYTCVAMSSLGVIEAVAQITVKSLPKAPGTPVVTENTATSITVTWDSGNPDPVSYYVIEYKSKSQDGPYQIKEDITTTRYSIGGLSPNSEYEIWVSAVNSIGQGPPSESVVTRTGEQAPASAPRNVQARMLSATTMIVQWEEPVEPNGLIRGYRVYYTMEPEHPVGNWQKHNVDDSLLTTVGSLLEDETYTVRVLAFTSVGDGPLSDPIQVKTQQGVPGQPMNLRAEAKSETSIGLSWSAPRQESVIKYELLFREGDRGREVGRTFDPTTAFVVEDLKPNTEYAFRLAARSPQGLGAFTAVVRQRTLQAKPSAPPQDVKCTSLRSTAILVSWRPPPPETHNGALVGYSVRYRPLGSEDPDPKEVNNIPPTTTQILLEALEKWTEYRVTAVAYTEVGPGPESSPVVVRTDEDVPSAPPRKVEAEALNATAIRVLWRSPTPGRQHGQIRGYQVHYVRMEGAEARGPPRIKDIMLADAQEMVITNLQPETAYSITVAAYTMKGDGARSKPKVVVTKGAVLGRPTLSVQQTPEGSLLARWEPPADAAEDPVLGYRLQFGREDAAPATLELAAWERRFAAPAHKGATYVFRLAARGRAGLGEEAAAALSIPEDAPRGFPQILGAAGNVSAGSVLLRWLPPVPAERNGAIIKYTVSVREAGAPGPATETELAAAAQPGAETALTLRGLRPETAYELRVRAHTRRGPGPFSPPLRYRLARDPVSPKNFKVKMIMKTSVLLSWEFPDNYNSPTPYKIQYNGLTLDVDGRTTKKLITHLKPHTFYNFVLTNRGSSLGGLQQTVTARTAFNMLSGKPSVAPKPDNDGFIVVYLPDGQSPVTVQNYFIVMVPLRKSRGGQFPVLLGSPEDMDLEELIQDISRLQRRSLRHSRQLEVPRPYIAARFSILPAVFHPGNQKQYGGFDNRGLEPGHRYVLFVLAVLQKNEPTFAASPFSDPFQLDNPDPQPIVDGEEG

fold increase of binding in the presence of protamine: 2 fold
Substance: biotinylated bovine aggrecan, P13608 17-2364 (ligand; biotinylated (sites not stated); natural chondroitin sulphate side chains of the proteoglycan)
